Test results published in patent publication US20110008258A1, “METHODS RELATING TO BREATHING DISORDERS” (SAMSARA MEDICIN AB, priority 2007, published 2011).

Key:
mPGES-1 enzyme = target: T1, mPGES-1 enzyme (Homo sapiens, UniProt O14684); conditions: reported in refs 75-77; read-out: IC50, inhibition of mPGES-1; cited from earlier work
T1 sequence (O14684 1-152): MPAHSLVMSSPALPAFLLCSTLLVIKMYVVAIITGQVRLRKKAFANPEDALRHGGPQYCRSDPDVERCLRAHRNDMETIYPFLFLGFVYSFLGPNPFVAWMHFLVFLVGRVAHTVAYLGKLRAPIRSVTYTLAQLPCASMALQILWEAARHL

EP3R^−/− mice = test: Whole-body flow plethysmography after i.p. IL-1β, EP3R−/− mice; type: in vivo
Experimental: (§1) A Plexiglas chamber (35 ml) was connected to a highly sensitive direct airflow sensor (0-200 ml/min; TRN3100, Kent Scientific Corporation, Litchfield, Conn., USA). The flow signal was amplified by a four-channel amplifier (P/N 770 S/N 5; SENSElab, Somedic Sales, Hörby, Sweden), converted to digital signal, and recorded at 100 Hz by an online computer using DasyLab software (Datalog GmbH & Co. KG, Mönchengladbach, Germany). Respiratory frequency (fR, breaths/min), tidal volume (VT, μl/breath), and minute ventilation (VE, μl/min) were calculated. […] As described previously, the chamber was calibrated by repeatedly injecting standardized volumes of air (5-200 μl) with preset precision syringes (Hamilton Bonaduz AG, Switzerland) (6).
(§2) Each mouse received an intraperitoneal injection (0.01 ml/g) of IL-1β (10 μg/kg) or vehicle. At 70 min, the mouse was placed unrestrained into the plethysmograph chamber. Respiration was assessed during 4 min of normoxia (21% O2) followed by 1 min of hyperoxia (100% O2). After a 5 min recovery period in normoxia, the respiratory response to anoxia (100% N2) was examined. Finally, 100% O2 was administered for 8 min, and the ability to autoresuscitate was evaluated. Skin temperature was recorded at baseline, at 70 min, and after removal from the chamber. Rectal temperature was not measured as rectal probe placement may alter respiratory behavior. The anogenital distance was measured to approximate gender.
Periods of calm respiration without movement artefact were selected for analysis. Mean fR, VT, and VE values during normoxia and hyperoxia as well as the anoxic response (i.e., hyperpnea, primary apnea, gasping, secondary apnea, and autoresuscitation) were analyzed as described previously (6, the disclosure of which is expressly incorporated herein by reference). Survival was recorded for all animals. Apnea was defined as cessation of breathing for three respiratory cycles. Regularity of breathing was quantified using the coefficient of variation (C.V.) (i.e., SD divided by mean of breath-by-breath interval during 60 periods). […]

mPGES-1^−/− mice = test: Whole-body flow plethysmography after i.p. IL-1β, mPGES-1−/− mice; type: in vivo
Experimental: as §1, §2
(§3) Periods of calm respiration without movement artefact were selected for analysis. Mean fR, VT, and VE values during normoxia and hyperoxia as well as the anoxic response (i.e., hyperpnea, primary apnea, gasping, secondary apnea, and autoresuscitation) were analyzed as described previously (6, the disclosure of which is expressly incorporated herein by reference). Survival was recorded for all animals. Apnea was defined as cessation of breathing for three respiratory cycles. Regularity of breathing was quantified using the coefficient of variation (C.V.) (i.e., SD divided by mean of breath-by-breath interval during 60 periods).
(§4) As there is a variable response to anoxia based upon age (53), we attempted to perform all recordings at age P9; however, in an effort to minimize confounding age-related effects, weight was used as a correlate of age and only animals with weights within 1 SD of the population mean weight were included in the anoxia and survival analyses (6).

mPGES-1^+/+ mice = test: Whole-body flow plethysmography after i.p. IL-1β, mPGES-1+/+ mice; type: in vivo
Experimental: as §1, §2, §3, §4

mPGES-1 = mPGES-1 activity in brain membrane fraction after IL-1β; type: in vivo, mice
Experimental: Newborn mouse brains (n=33) were homogenized in 0.1M KPi (potassium inorganic phosphate) buffer containing 0.25M sucrose, 1× complete protease inhibitor (Roche Diagnostics) and 1 mM reduced glutathione followed by sonication. Membrane fraction was isolated by subcellular fractionation. mPGES-1 activity was measured in the membrane fraction as described previously (52, the disclosure of which is expressly incorporated herein by reference).

[1] = 9 d-old mPGES-1−/− mice, IL-1β i.p., hyperoxia (100% O2)
[2] = 9 d-old mPGES-1−/− mice, IL-1β i.p., normoxia
[3] = mPGES-1−/− mice, anoxia at 80 min after IL-1β
[4] = 9 d-old mPGES-1+/+ mice, IL-1β i.p., hyperoxia (100% O2)
[5] = 9 d-old mPGES-1+/+ mice, IL-1β i.p., normoxia
[6] = mPGES-1+/+ mice, anoxia at 80 min after IL-1β
[7] = EP3R wildtype mice, 90 min after IL-1β

CCCCC/C=C\C\C=C/C=C/C=C/[C@@H](SC[C@H](NC(=O)CC[C@H](N)C(=O)O)C(=O)NCC(=O)O)[C@@H](O)CCCC(=O)O [leukotriene C4]
IC50 (mPGES-1 enzyme): 5 µM

CSc1ccc(/C=C2/C(C)=C(CC(=O)O)c3cc(F)ccc32)cc1 [sulindac sulfide]
IC50 (mPGES-1 enzyme): 80 µM

B1: IL-1β: Recombinant mouse interleukin-1β (Nordic Biosite AB), pro-inflammatory cytokine given i.p. to neonatal mice (protein, UniProt P10749 118-269, looked up)
Interleukin-1 beta: VPIRQLHYRLRDEQQKSLVLSDPYELKALHLNGQNINQQVIFSMSFVQGEPSNDKIPVALGLKGKNLYLSCVMKDGTPTLQLESVDPKQYPKKKMEKRFVFNKIEVKSKVEFESAEFPNWYISTSQAEHKPVFLGNNSGQDIIDFTMESVSS
hypoxic ventilatory response (EP3R^−/− mice; EP3R−/− mice, IL-1β i.p.): unable to affect the hypoxic ventilatory response
ventilation during normoxia or hyperoxia (EP3R^−/− mice; EP3R−/− mice, IL-1β i.p.): did not alter ventilation
anoxic survival (EP3R^−/− mice; mice lacking EP3R, 5 min anoxia at 80 min after IL-1β i.p.): did not decrease survival
VE, hyperoxia (mPGES-1^−/− mice; [1]): 795 ± 67 µL/min/g
VT, hyperoxia (mPGES-1^−/− mice; [1]): 3.9 ± 0.3 μl/br/g
fR, hyperoxia (mPGES-1^−/− mice; [1]): 206 ± 11 breaths/min
VE, normoxia (mPGES-1^−/− mice; [2]): 660 ± 41 µL/min/g
VT, normoxia (mPGES-1^−/− mice; [2]): 2.7 ± 0.1 μl/br/g
fR, normoxia (mPGES-1^−/− mice; [2]): 245 ± 7 breaths/min
Hyperpnea fR (mPGES-1^−/− mice; mPGES-1−/− mice, anoxia (100% N2) at 80 min after IL-1β): 338 ± 24 breaths/min
Gasping Response Duration (mPGES-1^−/− mice; [3]): 146 ± 23
Gasping Response Gasp # (mPGES-1^−/− mice; [3]): 36 ± 3
Gasping Response Gasp fR (mPGES-1^−/− mice; [3]): 18 ± 2
Hyperpnea Duration (mPGES-1^−/− mice; [3]): 57 ± 2
anoxic survival (mPGES-1^−/− mice; mice lacking mPGES-1, 5 min anoxia at 80 min after IL-1β i.p.): did not decrease survival
fR, normoxia (mPGES-1^+/+ mice; 9 d-old mPGES-1+/+ mice, IL-1β 10 μg/kg i.p., normoxia, mean±SEM): 224 ± 5 breaths/min
VE, hyperoxia (mPGES-1^+/+ mice; [4]): 628 ± 43 µL/min/g
VT, hyperoxia (mPGES-1^+/+ mice; [4]): 3.9 ± 0.2 μl/br/g
fR, hyperoxia (mPGES-1^+/+ mice; [4]): 155 ± 7 breaths/min
VE, normoxia (mPGES-1^+/+ mice; [5]): 730 ± 38 µL/min/g
VT, normoxia (mPGES-1^+/+ mice; [5]): 3.2 ± 0.2 μl/br/g
anoxic survival (mPGES-1^+/+ mice; mPGES-1+/+ mice, 5 min anoxia at 80 min after IL-1β i.p.): significantly reduced anoxic survival
Hyperpnea fR (mPGES-1^+/+ mice; mPGES-1+/+ mice, anoxia (100% N2) at 80 min after IL-1β): 390 ± 11 breaths/min
Gasping Response Duration (mPGES-1^+/+ mice; [6]): 82 ± 7
Gasping Response Gasp # (mPGES-1^+/+ mice; [6]): 30 ± 2
Gasping Response Gasp fR (mPGES-1^+/+ mice; [6]): 23 ± 1
Hyperpnea Duration (mPGES-1^+/+ mice; [6]): 61 ± 2
mPGES-1 activity (PGE2), brainstem (mPGES-1; [7]): 1111±49 pmol/min/mg protein
mPGES-1 activity (PGE2), cortex (mPGES-1; [7]): 710±44 pmol/min/mg protein
brainstem mPGES-1 activity compared to control mice (mPGES-1; IL-1β-treated mice exposed to anoxia (100% N2, 5 min)): four-times higher activity
cortex mPGES-1 activity (mPGES-1; between 90 and 180 min after IL-1β): remained unchanged
mPGES-1 activity (mPGES-1; mice with genetic deletion of mPGES-1 gene, IL-1β and anoxia): negligible activity
brainstem mPGES-1 activity compared to saline-treated mice (mPGES-1; wildtype mice, 90 min after IL-1β): approximately two-fold higher activity
increase in brainstem mPGES-1 activity (mPGES-1; wildtype mice, 180 min after IL-1β): four-fold increase
